Assay results reported in article PMC12219266, “The molecular basis for acetylhistidine synthesis by HisAT/NAT16” (Nature Communications, 2025).

T1: NAT16 (HisAT) (Homo sapiens, UniProt Q8N8M0)
T1 construct: full length (369 aa), C-terminal 6xHis tag kept, codon-optimised, pFastBac1, Sf9 insect cells
T1 sequence (Q8N8M0 1-369): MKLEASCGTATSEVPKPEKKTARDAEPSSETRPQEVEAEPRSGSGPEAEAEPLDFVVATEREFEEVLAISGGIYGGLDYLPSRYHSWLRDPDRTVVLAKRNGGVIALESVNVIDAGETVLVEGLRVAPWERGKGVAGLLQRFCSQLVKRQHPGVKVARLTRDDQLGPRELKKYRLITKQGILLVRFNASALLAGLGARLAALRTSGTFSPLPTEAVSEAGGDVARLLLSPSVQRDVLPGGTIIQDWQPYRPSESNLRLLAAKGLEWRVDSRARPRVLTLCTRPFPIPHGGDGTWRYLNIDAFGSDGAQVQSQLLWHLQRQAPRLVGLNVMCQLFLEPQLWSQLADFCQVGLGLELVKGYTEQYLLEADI

B1: NAT16 (HisAT) (Homo sapiens) (protein)
chain: T1 sequence (Q8N8M0 1-369)
notes: full length (369 aa), C-terminal 6xHis tag kept, codon-optimised, pFastBac1, Sf9 insect cells

Assays:
NAT16 (HisAT) = molecular target: T1, NAT16 (HisAT); assay: DTNB real-time assay, Michaelis-Menten fit; format: biochemical; conditions: 50 µM Ac-CoA; 50 mM Na-phosphate pH 7.5, 37 °C
[1] = substrate: CC(=O)SCCNC(=O)CCNC(=O)[C@H](O)C(C)(C)COP(=O)(O)OP(=O)(O)OC[C@H]1O[C@@H](n2cnc3c(N)ncnc32)[C@H](O)[C@@H]1OP(=O)(O)O; assay: DTNB real-time assay, initial rates, ternary complex model, secondary plots; format: biochemical, Homo sapiens; conditions: varied with L-histidine, 50 mM Na-phosphate pH 7.5, 100 mM NaCl, 1 mM EDTA, 37 °C
Text: (§1) DTNB real-time assay, initial rates, ternary complex model, secondary plots on NAT16 (HisAT)

[2] = substrate: N[C@@H](Cc1c[nH]cn1)C(=O)O; assay: as above; format: biochemical, Homo sapiens; conditions: varied with Ac-CoA, 50 mM Na-phosphate pH 7.5, 100 mM NaCl, 1 mM EDTA, 37 °C
Text: as §1

Molecule	apparent KM (NAT16 (HisAT))	Km [1] [µM]	kcat [1] [s⁻¹]	kcat/Km [1] [M⁻¹ s⁻¹]	Km [2] [µM]	kcat [2] [s⁻¹]	kcat/Km [2] [M⁻¹ s⁻¹]
NCCCC[C@H](N)C(=O)O [lysine]	determined the apparent kcat and KM with arginine and lysine						
N=C(N)NCCC[C@H](N)C(=O)O [arginine]	determined the apparent kcat and KM with arginine and lysine						
B1		19.8 ± 4.5	36.5 ± 4.6	1.9e+06	215 ± 53	36.5 ± 4.6	177000
